Data on 28 molecules can be found in publication PMC4072508, “Genome-Wide Prediction and Validation of Peptides That Bind Human Prosurvival Bcl-2 Proteins” (PLoS Computational Biology, 2014).

Assay in all cases: peptide SPOT array, c-Myc-tagged receptor at 1 uM or 100 nM, anti-c-Myc-Cy3
One assay has as its target Bcl-xL, Q07817.
The next assay addresses T1, Bfl-1, Q16548.
T1 chain: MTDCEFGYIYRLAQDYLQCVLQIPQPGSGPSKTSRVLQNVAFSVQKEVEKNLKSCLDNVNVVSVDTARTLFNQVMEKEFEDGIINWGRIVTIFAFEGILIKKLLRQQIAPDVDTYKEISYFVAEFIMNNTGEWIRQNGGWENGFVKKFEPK

A further assay addresses T2, Mcl-1, Q07820.
T2 chain: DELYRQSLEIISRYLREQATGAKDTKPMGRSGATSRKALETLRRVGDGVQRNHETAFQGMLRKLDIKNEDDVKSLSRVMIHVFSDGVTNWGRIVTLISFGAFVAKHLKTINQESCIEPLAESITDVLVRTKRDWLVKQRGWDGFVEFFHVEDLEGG

Sequence of Bcl-xL, Q07817 (Q07817 1-209): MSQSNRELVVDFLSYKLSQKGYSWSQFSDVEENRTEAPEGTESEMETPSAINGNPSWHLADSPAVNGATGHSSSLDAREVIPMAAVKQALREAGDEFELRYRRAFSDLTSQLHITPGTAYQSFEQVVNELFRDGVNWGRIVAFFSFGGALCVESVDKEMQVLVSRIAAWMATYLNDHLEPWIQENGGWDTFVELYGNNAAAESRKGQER

B1: DOCK2 (peptide)
chain: SHFVACMTAILNQMGDQHYSFYIETF
As to B1, the SPOT signal as a fraction of Bim BH3's signal on the same receptor and array with Bcl-xL, Q07817 worked out at 0.07; with Bfl-1, Q16548, 0.05; with Mcl-1, Q07820, 0.06.

B2: MCF2L2 (peptide)
chain: SQEPLEKAQLLALVLDQLIQSHHYAA
On to B2, for which the SPOT signal as a fraction of Bim BH3's signal on the same receptor and array with Bcl-xL, Q07817 was determined as 0.06; in the assay with Bfl-1, Q16548, 0.03; with Mcl-1, Q07820, 0.04.

B3: SOS2 (peptide)
chain: LMARPAVALHFQSILDGFKEAVRYVL
In the case of B3, the SPOT signal as a fraction of Bim BH3's signal on the same receptor and array turned out to be 0.48 with Bcl-xL, Q07817; 0.44 with Bfl-1, Q16548; 0.84 with Mcl-1, Q07820.

B4: TMEM184C (peptide)
chain: SDIRDDISEQDRHVGRTVRGHPRKKL
Take B4: the SPOT signal as a fraction of Bim BH3's signal on the same receptor and array in the assay with Bcl-xL, Q07817 amounted to 0.45; with Bfl-1, Q16548, 0.14; with Mcl-1, Q07820, 0.13.

B5: RTEL1 (peptide)
chain: RVCPYYLSRNLKQQLDIIFMPYNYLL
Turning to B5, the SPOT signal as a fraction of Bim BH3's signal on the same receptor and array in the assay with Bcl-xL, Q07817 stood at 1.16; with Bfl-1, Q16548, 0.52; in the assay with Mcl-1, Q07820 it was 0.75.

B6: MYO3A (peptide)
chain: HTALENCASLDCIRADELQEALTSHC
Consider B6, for which the SPOT signal as a fraction of Bim BH3's signal on the same receptor and array with Bcl-xL, Q07817 was 0.05; with Bfl-1, Q16548 it was 0.03; with Mcl-1, Q07820, 0.03.

B7: RGPD2 (peptide)
chain: PALLVHWAKCDQKMGRGLNSSYDQQE
Consider B7, for which the SPOT signal as a fraction of Bim BH3's signal on the same receptor and array with Bcl-xL, Q07817 is 0.38; with Bfl-1, Q16548, 0.26; with Mcl-1, Q07820 it was 0.41.

B8: MFSD11 (peptide)
chain: SKEVAILCSFLLGLLDSCFNTQLLSI
As for B8, the SPOT signal as a fraction of Bim BH3's signal on the same receptor and array with Bcl-xL, Q07817 stood at 0.09; with Bfl-1, Q16548, 0.04; with Mcl-1, Q07820, 0.05.

B9: P2RX7 (peptide)
chain: QCPIFRLGDIFRETLDNFSDVAIQGG
As to B9, the SPOT signal as a fraction of Bim BH3's signal on the same receptor and array in the assay with Bcl-xL, Q07817 is 0.06; in the assay with Bfl-1, Q16548 it was 0.04; in the assay with Mcl-1, Q07820, 0.05.

B10: SPTAN1 (peptide)
chain: QRKHEGFERDLAALLDKVNSLGETAE
Consider B10, for which the SPOT signal as a fraction of Bim BH3's signal on the same receptor and array with Bcl-xL, Q07817 worked out at 0.1; with Bfl-1, Q16548, 0.08; in the assay with Mcl-1, Q07820, 0.11.

B11: KIF19 (peptide)
chain: KLALEQRCREDRARGRRLEETLPRRI
Take B11: the SPOT signal as a fraction of Bim BH3's signal on the same receptor and array with Bcl-xL, Q07817 is 0.83; in the assay with Bfl-1, Q16548, 0.43; in the assay with Mcl-1, Q07820 it was 0.44.

B12: NCAPH2 (peptide)
chain: QEQEQHVPFDIHTYLDQLVSRFPQLN
Turning to B12, the SPOT signal as a fraction of Bim BH3's signal on the same receptor and array with Bcl-xL, Q07817 worked out at 0.06; with Bfl-1, Q16548 it was 0.04; in the assay with Mcl-1, Q07820, 0.04.

B13: NOX4 (peptide)
chain: TETKATFGVHLKIVGDWTERFRDLLL
For B13, the SPOT signal as a fraction of Bim BH3's signal on the same receptor and array was 0.16 in the assay with Bcl-xL, Q07817; 0.11 in the assay with Bfl-1, Q16548; 0.08 with Mcl-1, Q07820.

B14: SMPD2 (peptide)
chain: PYLSKHRADRDRRLGDFLNQESFDLA
Regarding B14, the SPOT signal as a fraction of Bim BH3's signal on the same receptor and array was 0.49 with Bcl-xL, Q07817; 0.56 in the assay with Bfl-1, Q16548; 0.51 in the assay with Mcl-1, Q07820.

B15: COL2A1 (peptide)
chain: VLLTLLVAAVLRCQGQDVQEAGSCVQ
Regarding B15, the SPOT signal as a fraction of Bim BH3's signal on the same receptor and array with Bcl-xL, Q07817 turned out to be 0.06; in the assay with Bfl-1, Q16548, 0.04; with Mcl-1, Q07820, 0.04.

B16: MFSD11 (peptide)
chain: SKEVAILCSFLLGLGDSCFNTQLLSI
Regarding B16, the SPOT signal as a fraction of Bim BH3's signal on the same receptor and array with Bcl-xL, Q07817 turned out to be 0.09; with Bfl-1, Q16548 it was 0.04; in the assay with Mcl-1, Q07820, 0.05.

B17: USP40 (peptide)
chain: MSLFLRVVFSFTMFGDLFEEEYSTVS
Turning to B17, the SPOT signal as a fraction of Bim BH3's signal on the same receptor and array was 0.07 with Bcl-xL, Q07817; 0.04 with Bfl-1, Q16548; 0.07 in the assay with Mcl-1, Q07820.

B18: ISOC1 (peptide)
chain: AGYELLIQKFLSLYLDQIDMHRKFVV
In the case of B18, the SPOT signal as a fraction of Bim BH3's signal on the same receptor and array in the assay with Bcl-xL, Q07817 is 0.09; with Bfl-1, Q16548 it was 0.05; with Mcl-1, Q07820 it was 0.07.

B19: MYCBP2 (peptide)
chain: AIILCNVCGNLCTDLDRFLHLHRRTK
In the case of B19, the SPOT signal as a fraction of Bim BH3's signal on the same receptor and array in the assay with Bcl-xL, Q07817 came to 0.51; with Bfl-1, Q16548 it was 0.28; in the assay with Mcl-1, Q07820, 0.51.

B20: SYNE1 (peptide)
chain: VTLLSEVEKMLSNFLDCVQYKEIVKN
B20: the SPOT signal as a fraction of Bim BH3's signal on the same receptor and array came to 0.11 with Bcl-xL, Q07817; 0.06 with Bfl-1, Q16548; 0.06 with Mcl-1, Q07820.

B21: FTL (peptide)
chain: THFLDEEVKLIKKMLDHLTNLHRLGG
With B21, the SPOT signal as a fraction of Bim BH3's signal on the same receptor and array was found to be 0.07 with Bcl-xL, Q07817; 0.04 in the assay with Bfl-1, Q16548; 0.05 in the assay with Mcl-1, Q07820.

B22: FBXW5 (peptide)
chain: LTETSLISGNLHRILDITSCSVLWLN
As for B22, the SPOT signal as a fraction of Bim BH3's signal on the same receptor and array stood at 0.06 in the assay with Bcl-xL, Q07817; 0.07 in the assay with Bfl-1, Q16548; 0.04 in the assay with Mcl-1, Q07820.

B23: MYBBP1A (peptide)
chain: LALLAQPSHLMRQVLRSVFGHICSHL
For the molecule B23, the SPOT signal as a fraction of Bim BH3's signal on the same receptor and array with Bcl-xL, Q07817 stood at 0.75; with Bfl-1, Q16548 it was 0.54; with Mcl-1, Q07820, 0.54.

B24: DOCK2 (peptide)
chain: SHFVACMTAIDNQMGDQHYSFYIETF
Consider B24, for which the SPOT signal as a fraction of Bim BH3's signal on the same receptor and array with Bcl-xL, Q07817 turned out to be 0.08; with Bfl-1, Q16548 it was 0.05; in the assay with Mcl-1, Q07820, 0.05.

B25: BBC3 (peptide)
chain: EQWAREIGAQDRRMADDLNAQYERRR
On to B25, for which the SPOT signal as a fraction of Bim BH3's signal on the same receptor and array was 0.05 with Bcl-xL, Q07817; 0.02 with Bfl-1, Q16548; 0.07 with Mcl-1, Q07820.

B26: RGPD2 (peptide)
chain: PALLVHWAKCLQKMGRGLNSSYDQQE
For B26, the SPOT signal as a fraction of Bim BH3's signal on the same receptor and array in the assay with Bcl-xL, Q07817 amounted to 0.89; in the assay with Bfl-1, Q16548, 0.47; in the assay with Mcl-1, Q07820, 0.51.

B27: CCDC57 (peptide)
chain: QAGPVSSGLALRKLLDRVQLLNLLVT
On to B27, for which the SPOT signal as a fraction of Bim BH3's signal on the same receptor and array with Bcl-xL, Q07817 is 0.74; with Bfl-1, Q16548 it was 0.34; with Mcl-1, Q07820 it was 0.42.

B28: PCYT2 (peptide)
chain: HHSSQEMSSEDREYADSFGKCPGGRN
Regarding B28, the SPOT signal as a fraction of Bim BH3's signal on the same receptor and array with Bcl-xL, Q07817 is 0.05; with Bfl-1, Q16548 it was 0.03; in the assay with Mcl-1, Q07820, 0.04.
